Experimental data as given in PMC7969034.

T1: p204 HINab (Mus musculus, UniProt P0DOV2 216-619)
T1 sequence: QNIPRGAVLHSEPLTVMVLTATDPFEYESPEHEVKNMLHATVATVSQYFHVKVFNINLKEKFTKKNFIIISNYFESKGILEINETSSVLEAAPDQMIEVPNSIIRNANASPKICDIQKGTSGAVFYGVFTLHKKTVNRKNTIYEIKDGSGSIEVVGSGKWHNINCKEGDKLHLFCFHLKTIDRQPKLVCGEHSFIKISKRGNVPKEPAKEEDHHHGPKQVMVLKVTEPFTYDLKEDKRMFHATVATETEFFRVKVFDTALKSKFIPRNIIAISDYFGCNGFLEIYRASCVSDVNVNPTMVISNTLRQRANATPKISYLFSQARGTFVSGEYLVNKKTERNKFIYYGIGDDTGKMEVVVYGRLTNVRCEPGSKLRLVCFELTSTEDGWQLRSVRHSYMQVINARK

T2: p204 HINa (Mus musculus, UniProt P0DOV2 216-417)
T2 sequence: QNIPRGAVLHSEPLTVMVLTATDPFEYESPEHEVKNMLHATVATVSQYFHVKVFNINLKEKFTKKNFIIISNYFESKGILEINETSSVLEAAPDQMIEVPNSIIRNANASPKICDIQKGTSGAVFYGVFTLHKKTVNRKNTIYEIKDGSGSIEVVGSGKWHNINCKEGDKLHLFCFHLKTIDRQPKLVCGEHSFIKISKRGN

T3: p204 HINb (Mus musculus, UniProt P0DOV2 427-619)
T3 sequence: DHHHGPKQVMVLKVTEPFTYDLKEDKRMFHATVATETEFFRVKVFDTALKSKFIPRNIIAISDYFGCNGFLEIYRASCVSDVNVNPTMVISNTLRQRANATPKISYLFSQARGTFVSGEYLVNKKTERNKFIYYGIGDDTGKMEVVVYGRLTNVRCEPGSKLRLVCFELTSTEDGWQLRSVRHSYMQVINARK

B1: 30 mer dsDNA (dsDNA)
DNA 1: CCATCAGAAAGAGGTTTAATATTTTTGTGA
DNA 2: TCACAAAAATATTAAACCTCTTTCTGATGG
B2: 16 mer dsDNA (crystal) (dsDNA)
DNA 1: CCATCAGAAAGAGAGC
DNA 2: GCTCTCTTTCTGATGG
B3: 20 mer dsDNA (dsDNA)
DNA 1: TAAGACACGATGCGATAAAA
DNA 2: TTTTATCGCATCGTGTCTTA

What was measured:
p204 HINab [1] = molecular target: T1, p204 HINab; assay: fluorescence polarization
p204 HINa = molecular target: T2, p204 HINa; assay: fluorescence polarization
p204 HINb = molecular target: T3, p204 HINb; assay: fluorescence polarization
p204 HINab [2] = molecular target: T1, p204 HINab; assay: X-ray crystallography

Binder | Kd (p204 HINab [1]) [µM] | Kd (p204 HINa) [µM] | Kd (p204 HINb) [µM] | binding result (p204 HINab [2])
B1 | 13.5 ± 2.39 | 193 ± 77 | 157 ± 37.2 | 
B2 |  |  |  | binds
B3 | 156 ± 37.5 |  |  | 
